According to the supplement of paper PMC9170038:

Tested on: MS2 coat protein
Assay: apparent KD of MS2 coat protein; designed switch direction (-1 OFF switch, 1 ON switch): -1; higher = weaker reporter binding
Summary of the method: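 Designed RNA switches with common flanks were transcribed on Illumina chips by stalled E. coli RNA polymerase and titrated with SNAP-549-labelled MS2 coat protein, from 0.7 or 1.5 nM doubling to 3 µM, in Tris-HCl pH 7.5 buffer with KCl, MgCl2, BSA, DTT, tRNA and Tween-20. Steps lasted 0.8–1.5 h (lowest) to 10–20 min (highest). Titrations ran without input, with 200 uM small-molecule ligand, or with an oligonucleotide input. Normalised cluster fluorescence was curve-fitted, and apparent KD is the per-design median over clusters.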

[1] = input ligand: microRNA oligo, concentration not stated
[2] = Eterna round: R95, input ligand: FMN 200 uM
[3] = Eterna round: R95, input ligand: microRNA oligo, concentration not stated
[4] = Eterna round: R95, input ligand: none

Sequence | apparent KD of MS2 coat protein (input ligand: FMN 200 uM) [nM] | apparent KD of MS2 coat protein (input ligand: none) [nM] | apparent KD of MS2 coat protein [1] [nM] | apparent KD of MS2 coat protein [2] [nM] | apparent KD of MS2 coat protein [3] [nM] | apparent KD of MS2 coat protein [4] [nM]
AACAGUCUAGAGGAUAUGCUGGAUGAAUAUCUGGCAGAAGGCUGGACAUGAGGAUCACCCAUGUAAAUACUACC [Omei Ex6 A1c] (Eterna round: R97, puzzle: Exclusion 6) | 96.9 | 36.5 | – | – | – | –
AACCAGCGAGGAUAUGCUUGAGCUUGUUCUGGUUAUAAUCGACUUGAGGAUCACCCAAGUAGAAGGUGCUGACG [EX2 #58] (Eterna round: R97, puzzle: Exclusion 2) | 25.6 | 26.9 | – | – | – | –
AACCAGCUAGGAUAUGCUUGCGCGUGUUCUGGUUAUAAUCGACUUGAGGAUCACCCAAGUAGAAGGAGCUGGCG [EX2 #54] (Eterna round: R97, puzzle: Exclusion 2) | 1360 | 445 | – | – | – | –
AACCUCGUAGCAGGAUAUUAGAGCUCCCGCAAAUGAGAAGGGCUACGAAACACUUGAGGAUCACCCAAGUACCGUGGUCCUCUA [Mutated MS2 EX1.8] (Eterna round: R96, puzzle: Exclusion NG 1) | 12.7 | 20.7 | 17.6 | – | – | –
AACGCGUGAGGAUAUUGAGGUCUAAAAUGGUAACAUGACCACGAGAAGGCACAUGAGGAUCACCCAUGUUCCCG [Eternabot (L2) Solution 49] (Eterna round: R97, puzzle: Exclusion 4) | 85.1 | 17.8 | – | – | – | –
AACGUGUAAGGAUAUCUGCUUAUGCUCAGCGAUACGCUGAUAGAGAAGGUACAUGAGGAUCACCCAUGUUCCAA [EX4 A.17] (Eterna round: R97, puzzle: Exclusion 4) | 20.4 | 17.5 | – | – | – | –
AACUAGUCAGGAUAUACGAACAUGUCAAAAAACAUGAAGGGACAUGAGGAUCACCCAUGUAGAAGGGACUAGCA [74%, Web mod - With 3 less G's] (Eterna round: R96, puzzle: Exclusion 2) | – | – | 29.3 | – | – | –
AACUCUGAGAAGGAUAUUCAAUGGGAAACGAUAGAAGAAGGUUUCACAUGAGGAUCACCCAUGUCAAAUAGUGA [EX6 #72] (Eterna round: R97, puzzle: Exclusion 6) | 178 | 173 | – | – | – | –
AACUCUGAGGAGGAUAUACAGUGCGAAAGGACAGUAGAAGGCUUCACAUGAGGAUCACCCAUGUCGAAUAGUGA [EX6 #78] (Eterna round: R97, puzzle: Exclusion 6) | 68 | 51.9 | – | – | – | –
AACUGGACAGGAUAUGUACUUGAGCACUUGAGGAUCACCCAAGUCAUCAAGUACUCAGGCACAGAAGGGUUUAUGA [jl-ex5.4.61 ViennaUCT mod] (Eterna round: R97, puzzle: Exclusion 5) | 142 | 132 | – | – | – | –
AACUGGACAGGAUAUGUACUUGAGCACUUGAGGAUCACCCAAGUCAUCAAGUACUCAGGCACAGAAGGGUUUAUUU [jl-ex5.4.69 ViennaUCT mod] (Eterna round: R97, puzzle: Exclusion 5) | 311 | 200 | – | – | – | –
AACUGGCGAGGAUAUACUUGGCAUAUAGCCUAAUUUCGGCUACUUGAGGAUCACCCAAGUAGAAGGUGCACGGC [Anlaxebe] (Eterna round: R97, puzzle: Exclusion 2) | 16.5 | 15.1 | – | – | – | –
AACUGUGAGGCAGGAUAUGAAGCAUGGGCCGCGUGAUAAUACAUGAGGAUCACCCAUGUAGGGAUUCAGAAGGGCCCAGAGCAC [Atusveer] (Eterna round: R96, puzzle: Exclusion NG 2) | 20.4 | 18.2 | 11.5 | – | – | –
AAGAAACAUGAGGAUCACCCAUGUGAGGAUAUGAAAAAGAAAAGAAAAGAAAGAAGAAUCAGAAGGCACAAAGU [salish99-ex1_r3_089] (puzzle: Exclusion 1) | – | – | – | 26.5 | 25.9 | 32.6
AAGAAACAUGAGGAUCACCCAUGUGAGGAUAUGAAAAAGAAAAGAAAAGAAAGAAGGGUCAGAAGGCACAAAGG [salish99-ex1_r3_028] (puzzle: Exclusion 1) | – | – | – | 24 | 25.3 | 35.5
AAGAAACAUGAGGAUCACCCAUGUGAGGAUAUGAGCAAGAAAAGAAAAGAAAGAAGACUCAGAAGGCACAAAGG [salish99-ex1_r3_072] (puzzle: Exclusion 1) | – | – | – | 90.2 | 110 | 106
AAGAAACAUGAGGAUCACCCAUGUGAGGAUAUGAGCACGACCGUGAGGUCGAUAAGAAUCAGAAGGCACAUUAA [JL-ex1-4.55] (Eterna round: R97, puzzle: Exclusion 1) | 137 | 41.8 | – | – | – | –
AAGAAACAUGAGGAUCACCCAUGUGAGGAUAUGAUUAAGAAAAGAAAAGAAAGAAGAAUCAGAAGGCACAAAGG [salish99-ex1_r3_042] (puzzle: Exclusion 1) | – | – | – | 258 | 98.7 | 108
AAGAAACGAGGAUAUACAAUUAAGAGAGAGAAGGAAAUGAGACAUGAGGAUCACCCAUGUAGAAGGCGUAAGAG [JR_Exclu2_Sub083] (puzzle: Exclusion 2) | – | – | – | 28 | 31.5 | 28.2
AAGAAACGAGGAUAUACAGUUGAGUGAGAGAGGGUAGUGUUACAUGAGGAUCACCCAUGUAGAAGGCGUGAGAG [JR_Exclu2_Sub089] (puzzle: Exclusion 2) | – | – | – | 52.7 | 31.5 | 32.7
AAGAAACGAGGAUAUACAGUUGAGUGAGGGAGGGUAGUGUUACAUGAGGAUCACCCAUGUAGAAGGCGUGAGAG [JR_Exclu2_Sub090] (puzzle: Exclusion 2) | – | – | – | 24.8 | 19.3 | 25
AAGAACCCGGUAGGAUAUAUUGUGGGCAAACAUGGAACAACAUGAGGAUCACCCAUGUAAUUUAGGUAGAAGGGCCAAAAGAGA [Default title] (Eterna round: R96, puzzle: Exclusion NG 2) | 80.1 | 71.4 | 51.6 | – | – | –
AAGAACGUCGGAGGAUAUCCAGCCAAGCCCGCAGGAGAAGGCCGGCGGUGGGAUGUGCUUCACAUGAGGAUCACCCAUGUUAAU [Onriti] (Eterna round: R96, puzzle: Exclusion NG 1) | 361 | 96.2 | 64.6 | – | – | –
